Reference: US20120141376A1, “PROSTATE SPECIFIC TRANSCRIPTS AND THE USE THEREOF FOR PROSTATE CANCER THERAPEUTICS AND DIAGNOSTICS” (priority 2006, published 2012)

Tested on: HLA class I (e.g. HLA-A2) expressing adherent 293T cells
Assay: CTL assay on reverse transfected microarray (caspase activation, fluorescent Z-VAD)
Type: cell-based, human
Conditions: HLA-matched CD8+ T cells from prostate cancer patients incubated 4 hours on array; red fluorescent signal = positive response
Description: Additional patient samples were procured for the cytotoxic T Lymphocyte (CTL) assay. […] (PBMC) were isolated from blood drawn from patients with relevant clinical parameters, and with patient consent. Clinical data generally included patent history, physiopathology, and parameters relating to prostate cancer physiology. PBMCs were collected from 6 prostate cancer patients that met the study requirements. Duplicate samples were obtained from a single patient.
The 192 selected DATAS fragments were PCR amplified out of the library vector and directionally cloned into a eukaryotic expression vector down stream from staggered start site initiation codons. This configuration allows the DATAS fragment to be expressed in all the open reading frames, which is required because the correct reading frame is not always readily apparent.
Plasmid preparations were performed and the expression vectors containing the selcted DATAS fragment clones were re-arrayed into 96 well plates, which were subsequently used to spot glass slides for use in the CTL assay previously disclosed in International Patent Application No. PTC/US2005/032392, the disclosure of which is incorporated by reference in its entirety.
A design file containing the desired microarray positions of the DATAS expression vectors was uploaded into a high resolution scanner. The expression vectors containing the DATAS fragments were mixed with gelatin and lipofectamine and then spotted in duplicate in a pattern that matched the design file uploaded into the high resolution microarray scanner. The following positive controls, negative controls and experimental samples were spotted on the array.
The spotted arrays were then overlaid with HLA class I (e.g. HLA-A2) expressing adherent 293T cells and cultured for 48-72 hours to allow cells time to express vector-encoded transcripts.
The assay for CTL reactivity was then performed by incubating HLA-matched CD8^+ T cells from normal and prostate cancer patients on cultured reverse transfected microarray slides for 4 hours. Prior to incubation with the array, T cells from normals or patients may need to be expanded in vitro, to a small or large extent, to enhance the frequency of responding T cells. An inhibitor of activated caspase, fluorescence-tagged (sulfo-Rhodamine)-Z-VAD, is present throughout the cell incubation to bind caspases that become activated when antigen expressing adherent cells on certain spots are induced to die by the CTL. The slides are then washed to remove unbound fluorescent Z-VAD and 2-color (Green and Red) fluorescence images of the microarray slides are obtained with the microarray scanner.
Analysis and confirmation of data is then determined by visual inspection of the scanned image. The success of the reverse transfection is evaluated by observing green fluorescence at EGFP vector control spots. Then the fluorescence threshold(s) are adjusted on microarray scanner as necessary to establish relevant background and positive control signal intensities. […] Using the coordinate locations for the spots, the cDNAs yielding positive responses are identified.

Molecule	Patient ID with positive hit
No. 5: DATAS fragment; N-acetyltransferase 6; exon extension (nucleic acid, listed as Homo sapiens) DNA: GTAAAGGCATGTGGAATCCAGGGGCAGCTTTGGCTGGCACGCAGGATCCAGAGTCAGCTCAGCTGGGCTGGTACTCAGGATCAGCTCCATCCGGTGTGTAGGGTCTAGTGTAGGGGTCAGCTTGGCTGGGCCAGGGCTCAGAGTCAGCTCTTGCCTATGCACAGGATCCAGGTTCAGCTGAGTCAGGCTGGGAGCCAAGGTCACCTGCTGCTAGGTTGCAGGTGGCTCAGTGCCAGGCTGGAGGTTAAGACCCCAGTCTCCAGGCAGTAGCATCTCTTCAGACCACAGTGGCTCTCCTCATGTTGATGCTGGCCTCTGGGATGTTCCGCGTCCTAGCTCCGCACAGCTGGGTATCTCACTCAGTCGCCACCTCGGCCTCCCAACA	EYGRT
No. 6: DATAS fragment; transmembrane protease, serine 2; exon extension (nucleic acid, listed as Homo sapiens) DNA: GCCGAGGTCTTCCCTAAGGACAGGGAGACTTGTTGAGCTCCCAGTGTTGCCTGCAGCTCTCGCAGGGAGAGCACACTTCCCTCCCTGAGACCTCCACACGCACTACACAGATGGTCACAGCCCTATTCTCCAGCCCTGCCCCCGTCAGCTCATCCCAGCACCAACCCCTCTCCTGGGAAACCTGGATTCTCCTTACAACTGGCGGTGCCTGTGCTGAATGCAGCTCTGGAGTTCAGCTTCAGGGAAAGAAATTCCCAGCTCTGAAACTATAGGGCTCTATCAGTGCCATGGAATCCCCCTCTTATTCACCCAACGGCTTGGTTCTGCTGAACCAATTTCCCACTCCTCACTGAACCCCACCCAGGACACACAGGCGCCTGTTTCCCCTCTGGCATGCACACACTCTTCTGGAGCACACGCGACCCTCCCTAGGCCGCCTGCTTCTCGGCTCCCCTGCACA	EYGRT
No. 18: DATAS fragment; golgi SNAP receptor complex member 2; exon extension (nucleic acid, listed as Homo sapiens) DNA: GGCCTTAGGGGCACGAGGATGTGAATCGACCTACTACTTAATATAATGGCTGTGAGAAAAGGCCTCTTTCCTTTCCTTTCCACTTTTGCTCCACCCTATCAGGAGCCAGAAAGGCCTGATGGTGACAAGGTGTGAACCGTGTGGACAGTCCTGCACACAGGGCTCACTGTGGACACCTTCCCAGGGCACGCATCAGCTGTGTGAACAAAGCCACCAAAGCCATTCTTTCCCTCCCCCGC	FRJY5
No. 19: DATAS fragment; GenBank human mRNA AK054845; novel exon (nucleic acid, listed as Homo sapiens) DNA: GGGGACAGGCAGAGGTTGCACTGCACTCCAGCCTGGGTGACAGATCAAGATTCTGTCTCAAGTAATAATAATGATGATGATGATGATGATGATGATGATGATAATAACACACCTTGTTAATGTTAATTCACTGTGTTAAATCAATTAACTCATTTTCTCATAATTACCCTTGAACGAGTAAGTTATTGACATTCTCTCCATGGGAAAAAAAACCCTTGGAGAAAGGTAACTTGAATATGGCCAAATGGGCAATTTGGATAGAACTGGGATTTGAACCTAGGACATCTGATTCCACATCCTTTTCATGAGCCACAATGCTCTACATGTGGTTTTATTTCTTGGATCACATGTAACACATCCATAAAAGTGCCTCCCCCCG	EYGRT
No. 11: DATAS fragment; cadherin-like 23; novel exon (nucleic acid, listed as Homo sapiens) DNA: GACACCCTAGCTGCAAGGGAGGTTAGAAAAAATGAGGGACAGGATTATCATGGTCAGCATATTACTTGGGGGCCAGATATATCACTTCCCACACAAAAGCAGGCCTCTGTCAGTGAGGAAGAAGTGGAGAATGGATTTGGGGTGGGCATCTGACAGCATTTGCCACACTGCCCTCCCCAATCCTAATGCAGGCCAGTCAACGCACCACCCCCACTCCCCACCCACACTCCAACCCCCACAGTCCTAGGGTCTCTCAGGGAGACCATCGGTGGAATCCATAACATTCTAAGACCCTGCAGTTTGTAGGCAAAATCAGGCTTCCTTTGGGTGCCCCCG	MSMPB; P72
No. 8: DATAS fragment; ataxin 2-like; exon extension (nucleic acid, listed as Homo sapiens) DNA: GTAGCAGGGCAGCAGACTTGGGAGAACGCGGGGGATACATCCGGCCCACTGGAAGAAAAGGGGGAGCTGTAGGATGGTTACTGCTGGTCAACAGCAGTGAGTACAAGGGCCTTACTCAAAACAGCAAGAAAGTTTACACACTATACAACCAGAGTCACCAACTTAAATGTCTAGAAGCTCAAGGCAGGTAACACAAGCAGGTAAATGGCCTCATGGGCATCATCGACAACTGGAATGCTTAAAGGAGTGGCAGGGATTCTGTTCCAGTCAACTCAAGCTACGCAGCAAGGCAAGCTCAGTTGACAGAATTTCCTGTAATTCAAAAGAAACTAAAAATTTTCTATGGCTTCTATTGATTTATTTATTTAGAGACAGGGTATCGCTCTGTTCCCC	MSMPB
No. 9: DATAS fragment; protein kinase C, zeta; novel exon (nucleic acid, listed as Homo sapiens) DNA: GGGCAAAGGATGTTGCCCCTGTCCTGAAGGCTGTCGCCCGATCGCTCTATCCAAGGCTGCCCTGGGGCAGCGTCACCTGGGGGTCCTGCGGGGGCTTCTCAGCACAGCATCCAGCACTGCCACCTAGTGTGTTCCCGTCACGTCTCCTCCCCCCG	EYGRT
No. 21: DATAS fragment; GenBank human mRNA AK123820; exon extension (nucleic acid, listed as Homo sapiens) DNA: GGCGGCAGGTCTAATCTGGCACACTTGCTAACTTCTAATAAAGAATCAAATGGTCTTCCAACTCACATAATGACTAATTCTAAAGCATGCAACCTCAAAGTACTACATTCTCCCTGTTCTAGAAATACAACCCTAGAGGGCCAGTCTTCCTTCAGCATTCAAATATTGAGTAGAACAACTGAACTGTAAGGTTCAACTAAAGGAATGCAACTGTGACTTGAGCTGTGGAACGGCTATGGCCTAAGTCAAGAATTCTCAACCTCCCAC	EYGRT
No. 13: DATAS fragment; ATPase, Class V, type 10A; exon extension (nucleic acid, listed as Homo sapiens) DNA: GGAGGAGGTCGGCATCACCAGTAACAGGAATCCCTCTCCCTTTGAAGGCAGTGATGGCCAGCGACTTTGCAGTGCCGAAATTCCGATACCTGGAGAGGCTCTTGATTCTTCACGGGCATTGGTGCTACTCCCGACTTGCCAACATGGTGCTGTACTTCTTCTACAAAAACACAATGTTCGTGGGCCTCCTGTTTTGGTTCCAGTTTTTCTGTGGCTTCTCTGCATCTACCATGATTGACCAGTGGTATCTAATCTTCTTTAATCTGCTCTTCTCGTCACCTCCAACGA	MSMPB
No. 10: DATAS fragment; transferrin receptor (p90, CD71); novel exon (nucleic acid, listed as Homo sapiens) DNA: GTGGCGAGGCGGTTCGGGACGGAGGACGCGCTAGTGTTCTTCTGTGTGGCAGTTCAGAATGATGGATCAAGCTAGATCAGCATTCTCTAACTTGTTTGGTGGAGAACCATTGTCATATACCCGGTTCAGCCTGCTCTCC	MSMPB
No. 14: DATAS fragment; zinc finger protein 142 (clone pHZ-49); exon extension (nucleic acid, listed as Homo sapiens) DNA: CGGACCAGGACAAAATCATGACGATGCTCCATCCCAAGCCTTCCAGGTTACAAACCGCCTTTCCAGTTCGCTGGCTCTTATGATCCAGCTCCTGCCCGACGATGTGGACACTGTCATCACCTCCATTTTACAGATAGGAAAGCTGAGGCCCAGAGAAGCGAAGCGACTGTGTCTGTCCAAGACCACGCGCCCTCCTCCCTGTC	MSMPB
No. 15: DATAS fragment; GenBank Human mRNA AF116698 (intronic hit); genomic hit (nucleic acid, listed as Homo sapiens) DNA: CGGCGCACCTGGTACGTGGTGTATGTTCCATTTGTGCTGGCCACGGTGATGATGATGATGATGCCATCTCTCCGGCTACACTGCGAGCACAGATCACAGCTCTCTGTAGCTGATGCTGGCTCTACCCACTGTATTCGGG	MSMPB
No. 1: DATAS fragment; chromosome 14 open reading frame 122; exon extension (nucleic acid, listed as Homo sapiens) DNA: CTACCGGGGGAAGGGTCAAAGAGCGTGCCGAAGCGCTGGAGGGAGCTTCACGGACGCGAGCTAGGCACCGGCTCGCCTAATCCGGTACTAATCCGGCTTGCTGCTTCCCGTCCAGGCCTCGCTCGCCATGGGGGAGGTGGAGATCTCGGCCCTGGCCTACGTGAAGATGTGCCTGCATGCTGCCCGGTACCCACACGCCGCAGTCAACGGGCTGTTTTTGGCGCCAGCGCCGCGGTCTGGAGAATGCCTGTGCCTCACCGACTGTGTGCCCCTCTTCCACAGCCACCTGGACCTGTCCGTCATGTTGGAGGTCGCCCTCAACCAGGTGCCTCCGTTGCAT	EYGRT
